Assays:
[1] = molecular target: T1, recombinant human RKIP (rhRKIP) wild type, histidine-tagged (human), P30086; assay: LC Q-TOF mass spectrometry; purified rhRKIP WT and mutant proteins in buffer at pH 7.4; peaks around 22 kDa (monomer) and 44 kDa (dimer); conditions: remark: other sources report otherwise
[2] = molecular target: T1, recombinant human RKIP (rhRKIP) wild …; assay: non-reducing SDS-PAGE; purified rhRKIP in sample loading buffer without β-mercaptoethanol or boiling; Coomassie Brilliant Blue staining or anti-His immunoblot; conditions: remark: other sources report otherwise

B1: recombinant human RKIP (rhRKIP) wild type, histidine-tagged, P30086 1-187 (natural protein)
chain: MPVDLSKWSGPLSLQEVDEQPQHPLHVTYAGAAVDELGKVLTPTQVKNRPTSISWDGLDSGKLYTLVLTDPDAPSRKDPKYREWHHFLVVNMKGNDISSGTVLSDYVGSGPPKGTGLHRYVWLVYEQDRPLKCDEPILSNRSGDHRGKFKVASFRKKYELRAPVAGTCYQAEWDDYVPKLYEQLSGK
B1 gave a stoichiometry N [1] of 2 and a stoichiometry N [2] of 2.

Reference: PMC11767649
